From patent US20080014143A1 (SANFORD BURNHAM MEDICAL RESEARCH INSTITUTE, published 2008)
Bridge positions count the residues as written; N and C are the ends. Ends that are not written are not given here.

How the values were obtained:
[1] = target: purified gC1qR/p32 protein (coated onto microtiter wells) (human) (UniProt Q07021); experiment: phage binding to purified p32 coated on microtiter wells, plaque assay
[2] = target: gC1qR/p32 at the cell surface (C8161 cells transfected with p32 cDNA; MDA-MB-435 and MDA-MB-435 S35 cells; Raji cells) (human) (UniProt Q07021); experiment: inhibition of LyP-1 phage binding to Raji cells; competitor LyP-1 phage; 40 µg/ml mAb
[3] = target: purified gC1qR/p32 protein (coated onto microtiter wells) (human) (UniProt Q07021); experiment: inhibition of phage binding to purified p32 on wells; competitor LyP-1 phage; 20 µg/ml mAb
[4] = target: T1, endogenous gC1qR/p32 of tumor cells and tissues (extracts of MDA-MB-435 cells, BT549 cells, MDA-MB-435 tumor … (human, UniProt Q07021 74-282)); experiment: pull-down from MDA-MB-435 cell extract with biotinylated peptide on streptavidin beads, anti-p32 immunoblot
T1 construct: mature; 33 kD band in cell extracts; in tumor xenograft extracts an additional 75 kD band was also identified as gC1qR/p32; also called gC1q/p32 receptor; p32/p33/gC1qR/HABP1
T1 sequence (looked up): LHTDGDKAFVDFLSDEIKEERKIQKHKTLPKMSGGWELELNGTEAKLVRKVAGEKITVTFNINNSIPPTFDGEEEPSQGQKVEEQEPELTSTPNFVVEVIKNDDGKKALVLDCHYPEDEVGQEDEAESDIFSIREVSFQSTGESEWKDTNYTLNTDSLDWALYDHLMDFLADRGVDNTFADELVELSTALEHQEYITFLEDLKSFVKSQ
From the text: A tumor homing peptide, CREKA (SEQ ID NO: 3), and a peptide CRV which resembles Lyp-1 in its amino acid composition and cyclic structure (SEQ ID NO: 4, […]), were used as negative controls. (a) Left panel: silver staining of Lyp-1 bound proteins. The arrow indicates a specific 33 kD band, which was identified as gC1q/p32R by mass spectrometry. Right panel: immunoblot of total cell extract (Tot lysate) and proteins bound to Lyp-1 and control peptides using a monoclonal antibody against gC1q/p32 receptor. The antibody recognizes a band of 33 kD in the total proteins lysate and in the Lyp-1 pull down. Anti gC1q/p32 receptor reactive bands are not detected in the pull downs from both control peptides. […] The monoclonal antibody against gC1qR/p32 recognized a 75 kD and a 33 kD band only in the Lyp-1 peptide pull down (b-right panel).
A tumor homing peptide, CREKA (SEQ ID NO:3), and a peptide CRV which resembles Lyp-1 in its amino acid composition and cyclic structure (SEQ ID NO:4, […]), were used as negative controls. The Lyp-1 bound proteins were visualized using silver staining and immunobloting. […] The arrow indicates a specific 33 kD band, which was identified as gC1qR/p32 by mass spectrometry. […] The antibody recognizes a band of 33 kD in the total proteins lysate and in the Lyp-1 pull down. Anti gC1qR/p32 reactive bands are not detected in the pull downs from both control peptides.

[5] = target: T2, gC1qR/p32 at the cell surface (C8161 cells transfected with p32 cDNA); MDA-MB-435 and MDA-MB-435 S35 cells; … (human, UniProt Q07021 74-282); experiment: FACS of FITC-peptide on live MDA-MB-435 cells transfected with p32 siRNA or control siRNA
T2 construct: whole, on cells; also called cell surface p32; cell surface gC1qR/p32
T2 sequence (looked up): T1 sequence (looked up)
Description: 48 hours after transfection, inhibition of p32 expression was checked by immunoblot analysis and immunostaining (upper panels). β-actin was used as a control. (Lower panels) cells transfected with p32 siRNA or control siRNA were incubated for 1 h at 4 °C in the presence of 10 μM FITC conjugated LyP-1 peptide or a control peptide, […] (ARAL, SEQ ID NO: 5), which has same overall charge as LyP-1. Cells incubated in the absence of peptide served as negative control. Down-regulation of p32 expression reduced LyP-1 binding to the cells (left panel), but control peptide fluorescence was unaffected (right panel). A representative experiment out of three is shown. C. […] Insertless phage was used to determine background phage binding. The results are representative of three independent experiments and are expressed as percentage of phage binding (±SD), with binding of LyP-1 phage in the presence of mIgG1 set as 100%.
MDA-MB-435 cells were transiently transfected with gC1qR/p32-specific or control siRNAs. […] The amount of fluorescence in living cells was analyzed by FACS. Cells incubated in the absence of peptide served as FITC negative control.

LyP-1 phage (phage displaying the LyP-1 peptide)
fold binding over insertless control phage [1]: 60 fold

mouse monoclonal anti-gC1qR/p32 antibody 60.11
percent reduction of LyP-1 binding [2]: 50% | percent reduction of LyP-1 phage binding [3]: 90%

B1: biotinylated CREKA peptide (peptide)
peptide: CREKA
modifications: also: biotinylated, site not given here
notes: Negative control in the pull-down; also called control peptide
binding result [4]: no binding

B2: biotinylated CRV peptide (CRVRTRSGC) (peptide)
peptide: CRVRTRSGC
modifications: disulfide 1-9 (inferred); also: biotinylated, site not given here
notes: as for B1
binding result [4]: no binding

ARALPSQRSR (also: FITC conjugated, site not given here, Same overall charge as LyP-1) [FITC conjugated control peptide ARALPSQRSR]
binding result [5]: no binding (tested: 10 µM)
